Results: article PMC11077089, “Molecular basis of A. thaliana KEOPS complex in biosynthesizing tRNA t6A”
Changes are numbered by the printed parent chain.

Key:
Assay in all cases: EMSA; 1:5 RNA:protein; MST: 20 mM PBS pH 7.5, 300 mM NaCl, 0.05% Tween 20, 25 C, 50 nM RNA; EMSA: 20 mM Tris-HCl pH 7.5, 300 mM NaCl, 5 mM b-mercaptoethanol, 20% glycerol, agarose gel in Tris-glycine pH 8.0 (8.5 for FAM-RNA), 4 C
Settings in all cases: protein: recombinant;recombinant;recombinant;recombinant; tags: ;none (6His on partner CGI121);6His (C-term);6His (C-term); chain copies: 2;2;2;2; label: 5' 6-FAM; tRNA cloverleaf
[1] = biological target: T1, KAE1 H117A;BUD32;CGI121;PCC1 (Arabidopsis thaliana;Arabidopsis …, UniProt O49653;Q94K14;Q6NMZ4;Q8GWD7 1-353;1-226;1-172;1-96, H117A|||)
T1 sequence 1: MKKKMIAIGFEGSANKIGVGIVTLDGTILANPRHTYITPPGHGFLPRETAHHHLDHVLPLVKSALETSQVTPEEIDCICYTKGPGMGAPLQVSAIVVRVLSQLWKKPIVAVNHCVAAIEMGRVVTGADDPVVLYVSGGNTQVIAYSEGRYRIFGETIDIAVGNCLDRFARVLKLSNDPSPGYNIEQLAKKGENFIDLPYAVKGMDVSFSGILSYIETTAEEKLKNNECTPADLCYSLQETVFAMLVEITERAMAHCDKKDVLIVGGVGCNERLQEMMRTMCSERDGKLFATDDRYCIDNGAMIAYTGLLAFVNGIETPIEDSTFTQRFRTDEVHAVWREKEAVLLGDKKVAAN
T1 sequence 2: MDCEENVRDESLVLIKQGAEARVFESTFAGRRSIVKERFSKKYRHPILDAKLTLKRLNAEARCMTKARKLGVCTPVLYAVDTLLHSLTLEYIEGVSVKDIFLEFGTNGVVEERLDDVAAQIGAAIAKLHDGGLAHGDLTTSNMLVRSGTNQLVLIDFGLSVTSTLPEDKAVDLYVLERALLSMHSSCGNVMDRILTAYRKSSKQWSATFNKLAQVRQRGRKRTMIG
T1 sequence 3: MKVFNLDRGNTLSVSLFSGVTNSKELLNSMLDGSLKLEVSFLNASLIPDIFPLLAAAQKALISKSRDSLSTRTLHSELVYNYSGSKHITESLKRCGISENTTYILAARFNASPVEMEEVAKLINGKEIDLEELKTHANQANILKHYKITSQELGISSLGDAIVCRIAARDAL
T1 sequence 4: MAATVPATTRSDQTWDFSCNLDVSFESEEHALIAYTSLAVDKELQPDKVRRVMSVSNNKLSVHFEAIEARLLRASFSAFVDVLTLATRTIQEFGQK

[2] = biological target: T2, KAE1 Y305A;BUD32;CGI121;PCC1 (Arabidopsis thaliana;Arabidopsis …, UniProt O49653;Q94K14;Q6NMZ4;Q8GWD7 1-353;1-226;1-172;1-96, Y305A|||)
T2 sequence 1: T1 sequence 1 with A117H, Y305A
T2 sequence 2: T1 sequence 2
T2 sequence 3: T1 sequence 3
T2 sequence 4: T1 sequence 4

[3] = biological target: T3, KAE1 K202R;BUD32;CGI121;PCC1 (Arabidopsis thaliana;Arabidopsis …, UniProt O49653;Q94K14;Q6NMZ4;Q8GWD7 1-353;1-226;1-172;1-96, K202R|||)
T3 sequence 1: T1 sequence 1 with A117H, K202R
T3 sequence 2: T1 sequence 2
T3 sequence 3: T1 sequence 3
T3 sequence 4: T1 sequence 4

[4] = biological target: T4, KAE1 R284C;BUD32;CGI121;PCC1 (Arabidopsis thaliana;Arabidopsis …, UniProt O49653;Q94K14;Q6NMZ4;Q8GWD7 1-353;1-226;1-172;1-96, R284C|||)
T4 sequence 1: T1 sequence 1 with A117H, R284C
T4 sequence 2: T1 sequence 2
T4 sequence 3: T1 sequence 3
T4 sequence 4: T1 sequence 4

Measured: binding result

B1: 5'-6FAM-tRNAArgCCU (structured_RNA)
RNA: GCGCCUGUAGCUCAGUGGAUAGAGCGUCUGUUUCCUAAGCAGAAGGUCGUAGGUUCGACCCCUACCUGGCGCGCCA
binds: all assays above
